Positions count from the first letter of the chain named.
B1: one-armed (OA) mAb01-9994 (antibody, V domains shown)
VH: EVQLVESGGGLVQPGRSLRLSCAASGFTFHDYAMHWVRQVPGKGLEWVSGISWKGDIGGYVDSVKGRFTISRDNEKNSLYLQMNSLRAEDTALYYCVKSYGSGSFYNAFDSWGQGTLVTVSS
VL: DIQMTQSPSTLSASVGDRVTITCRASQSISSWLAWYQQKPGKAPKFLIYKASRLDRGTPSRFSGSGSGTEFSLTISSLQPDDFATYYCLEYSSYIRTFGQGTKVEIK
notes: also called OA variant of mAb01-9994
B2: one-armed (OA) mAb01-9985 (antibody, V domains shown)
VH: B1 VH with K54R, D62K, E75A
VL: B1 VL with R53K, D55E
notes: also called OA variant of mAb01-9985

How the values were obtained:
[1] = molecular target: T1, wild-type FIX with C-terminal His-tag (human, UniProt P00740 47-461); experiment: SPR (Biacore T200), wild-type FIX captured via His-tag, 20 µM OA antibody (reference)
T1 construct: also called WT
T1 sequence (P00740 other isoform, or with tags, fused parts or gaps limits assumed): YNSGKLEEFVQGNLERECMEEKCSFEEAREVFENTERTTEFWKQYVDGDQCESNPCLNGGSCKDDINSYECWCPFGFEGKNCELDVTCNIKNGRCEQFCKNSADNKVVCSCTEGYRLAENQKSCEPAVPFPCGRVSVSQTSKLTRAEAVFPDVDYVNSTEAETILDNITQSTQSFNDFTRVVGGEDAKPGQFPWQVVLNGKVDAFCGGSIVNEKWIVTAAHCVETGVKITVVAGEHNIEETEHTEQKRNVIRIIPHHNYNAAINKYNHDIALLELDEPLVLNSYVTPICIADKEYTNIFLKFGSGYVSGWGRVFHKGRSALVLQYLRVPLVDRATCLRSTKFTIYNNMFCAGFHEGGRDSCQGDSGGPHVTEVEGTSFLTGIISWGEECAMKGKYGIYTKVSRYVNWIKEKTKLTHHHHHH
Experimental: (§1) SPR analyses were carried out on Biacore T200 instruments (Biacore AB, Uppsala, Sweden). For the experiments on the T200 instrument the following conditions were applied: measurements were conducted at a temperature of 25° C. Anti-His antibody at 25 μg/ml (R&D Systems, catalogue #MAB050) was immobilized on a CM5 sensor chip using standard amine coupling chemistry. […] at 25 nM were injected at a flow rate of 10 μl/min for 1 min and were captured via their His-tag by the immobilized anti-His antibody. […] The running buffer used was 20 mM Tris, 150 mM NaCl, 5 mM CaCl₂, 0.05% Tween-20, 10 mg/ml BSA, pH 7.4. This was also used for dilution of anti-FIX antibody and FIX samples. Regeneration of the chip was achieved using 10 mM Glycine pH 2.0. Binding data were analysed according to a 1:1 model using BiaEvaluation 4.1 supplied by the manufacturer (Biacore AB, Uppsala, Sweden).
(§2) where Rmax_FIXvar and Rmax_FIXwt represent capture level (RU) of FIX variant and wild-type FIX, respectively, and where R_{max_Ab,FIX_var} and R_{max_Ab,FIX_wt} represent Rmax (RU) of the 20 μM antibody to captured FIX variant and wild-type FIX, respectively.

[2] = molecular target: human plasma-derived Factor IXa (human, UniProt P00740 47-191; P00740 227-461); experiment: cell-based or functional assay
human plasma-derived Factor IXa, sequence (P00740 47-191, chain 1 of 2): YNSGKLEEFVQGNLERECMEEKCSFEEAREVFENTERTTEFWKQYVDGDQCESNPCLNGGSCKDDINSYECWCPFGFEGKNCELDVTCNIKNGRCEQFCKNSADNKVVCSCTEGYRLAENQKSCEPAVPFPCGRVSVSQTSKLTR
human plasma-derived Factor IXa, sequence (P00740 227-461, chain 2 of 2): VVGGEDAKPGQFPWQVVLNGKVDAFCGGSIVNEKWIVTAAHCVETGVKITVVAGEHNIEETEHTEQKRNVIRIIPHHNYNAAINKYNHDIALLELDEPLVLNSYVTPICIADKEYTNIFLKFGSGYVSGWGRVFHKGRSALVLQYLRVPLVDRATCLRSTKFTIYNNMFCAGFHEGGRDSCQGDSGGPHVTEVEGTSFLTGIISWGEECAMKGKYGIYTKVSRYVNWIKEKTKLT

[3] = molecular target: FIX K341E with C-terminal His-tag (human, UniProt P00740 47-461); experiment: SPR (Biacore T200), FIX variant captured via His-tag, 20 µM OA antibody
FIX K341E with C-terminal His-tag, sequence (P00740 other isoform, or with tags, fused parts or gaps K341E K341E limits assumed): as the sequence (P00740 other isoform, or with tags, fused parts or gaps limits assumed) above, with K341E counted along it
Experimental: as §1, §2

[4] = molecular target: FIX A334L with C-terminal His-tag (human, UniProt P00740 47-461); experiment: as above
FIX A334L with C-terminal His-tag, sequence (P00740 other isoform, or with tags, fused parts or gaps A334L A334L limits assumed): as the sequence (P00740 other isoform, or with tags, fused parts or gaps limits assumed) above, with A334L counted along it
Experimental: as §1, §2

[5] = molecular target: FIX S339L with C-terminal His-tag (human, UniProt P00740 47-461); experiment: as above
FIX S339L with C-terminal His-tag, sequence (P00740 other isoform, or with tags, fused parts or gaps S339L S339L limits assumed): as the sequence (P00740 other isoform, or with tags, fused parts or gaps limits assumed) above, with S339L counted along it
Experimental: as §1, §2

[6] = molecular target: FIX T340A with C-terminal His-tag (human, UniProt P00740 47-461); experiment: as above
FIX T340A with C-terminal His-tag, sequence (P00740 other isoform, or with tags, fused parts or gaps T340A T340A limits assumed): as the sequence (P00740 other isoform, or with tags, fused parts or gaps limits assumed) above, with T340A counted along it
Experimental: as §1, §2

[7] = molecular target: FIX T343I with C-terminal His-tag (human, UniProt P00740 47-461); experiment: as above
FIX T343I with C-terminal His-tag, sequence (P00740 other isoform, or with tags, fused parts or gaps T343I T343I limits assumed): as the sequence (P00740 other isoform, or with tags, fused parts or gaps limits assumed) above, with T343I counted along it
Experimental: as §1, §2

[8] = molecular target: FIX T343A with C-terminal His-tag (human, UniProt P00740 47-461); experiment: as above
FIX T343A with C-terminal His-tag, sequence (P00740 other isoform, or with tags, fused parts or gaps T343A T343A limits assumed): as the sequence (P00740 other isoform, or with tags, fused parts or gaps limits assumed) above, with T343A counted along it
Experimental: as §1, §2

[9] = molecular target: FIX R338A with C-terminal His-tag (human, UniProt P00740 47-461); experiment: as above
FIX R338A with C-terminal His-tag, sequence (P00740 other isoform, or with tags, fused parts or gaps R338A R338A limits assumed): as the sequence (P00740 other isoform, or with tags, fused parts or gaps limits assumed) above, with R338A counted along it
Experimental: as §1, §2

[10] = molecular target: FIX R333A with C-terminal His-tag (human, UniProt P00740 47-461); experiment: as above
FIX R333A with C-terminal His-tag, sequence (P00740 other isoform, or with tags, fused parts or gaps R333A R333A limits assumed): as the sequence (P00740 other isoform, or with tags, fused parts or gaps limits assumed) above, with R333A counted along it
Experimental: as §1, §2

[11] = molecular target: FIX D332S with C-terminal His-tag (human, UniProt P00740 47-461); experiment: as above
FIX D332S with C-terminal His-tag, sequence (P00740 other isoform, or with tags, fused parts or gaps D332S D332S limits assumed): as the sequence (P00740 other isoform, or with tags, fused parts or gaps limits assumed) above, with D332S counted along it
Experimental: as §1, §2

[12] = molecular target: FIX N346A with C-terminal His-tag (human, UniProt P00740 47-461); experiment: as above
FIX N346A with C-terminal His-tag, sequence (P00740 other isoform, or with tags, fused parts or gaps N346A N346A limits assumed): as the sequence (P00740 other isoform, or with tags, fused parts or gaps limits assumed) above, with N346A counted along it
Experimental: as §1, §2

[13] = molecular target: FIX K301A with C-terminal His-tag (human, UniProt P00740 47-461); experiment: as above
FIX K301A with C-terminal His-tag, sequence (P00740 other isoform, or with tags, fused parts or gaps K301A K301A limits assumed): as the sequence (P00740 other isoform, or with tags, fused parts or gaps limits assumed) above, with K301A counted along it
Experimental: as §1, §2

[14] = molecular target: FIX N346Q with C-terminal His-tag (human, UniProt P00740 47-461); experiment: as above
FIX N346Q with C-terminal His-tag, sequence (P00740 other isoform, or with tags, fused parts or gaps N346Q N346Q limits assumed): as the sequence (P00740 other isoform, or with tags, fused parts or gaps limits assumed) above, with N346Q counted along it
Experimental: as §1, §2

[15] = molecular target: FIX D332A with C-terminal His-tag (human, UniProt P00740 47-461); experiment: as above
FIX D332A with C-terminal His-tag, sequence (P00740 other isoform, or with tags, fused parts or gaps D332A D332A limits assumed): as the sequence (P00740 other isoform, or with tags, fused parts or gaps limits assumed) above, with D332A counted along it
Experimental: as §1, §2

[16] = molecular target: FIX L337A with C-terminal His-tag (human, UniProt P00740 47-461); experiment: as above
FIX L337A with C-terminal His-tag, sequence (P00740 other isoform, or with tags, fused parts or gaps L337A L337A limits assumed): as the sequence (P00740 other isoform, or with tags, fused parts or gaps limits assumed) above, with L337A counted along it
Experimental: as §1, §2

[17] = molecular target: FIX K341A with C-terminal His-tag (human, UniProt P00740 47-461); experiment: as above
FIX K341A with C-terminal His-tag, sequence (P00740 other isoform, or with tags, fused parts or gaps K341A K341A limits assumed): as the sequence (P00740 other isoform, or with tags, fused parts or gaps limits assumed) above, with K341A counted along it
Experimental: as §1, §2

[18] = molecular target: FIX T335A with C-terminal His-tag (human, UniProt P00740 47-461); experiment: as above
FIX T335A with C-terminal His-tag, sequence (P00740 other isoform, or with tags, fused parts or gaps T335A T335A limits assumed): as the sequence (P00740 other isoform, or with tags, fused parts or gaps limits assumed) above, with T335A counted along it
Experimental: as §1, §2

Binder	Binding (%) relative to wild-type FIX [1] [%]	Stimulation Index, FXa generation assay, 3600 nM OA antibody [2] [fold]	Binding (%) relative to wild-type FIX [3] [%]	Binding (%) relative to wild-type FIX [4] [%]	Binding (%) relative to wild-type FIX [5] [%]	Binding (%) relative to wild-type FIX [6] [%]	Binding (%) relative to wild-type FIX [7] [%]	Binding (%) relative to wild-type FIX [8] [%]	Binding (%) relative to wild-type FIX [9] [%]	Binding (%) relative to wild-type FIX [10] [%]	Binding (%) relative to wild-type FIX [11] [%]	Binding (%) relative to wild-type FIX [12] [%]	Binding (%) relative to wild-type FIX [13] [%]	Binding (%) relative to wild-type FIX [14] [%]	Binding (%) relative to wild-type FIX [15] [%]	Binding (%) relative to wild-type FIX [16] [%]	Binding (%) relative to wild-type FIX [17] [%]	Binding (%) relative to wild-type FIX [18] [%]	Stimulation Index, FXa generation assay, 2400 nM OA antibody [2] [fold]
B1	100	10600	3	38	46	16	62	58	0	55	41	92	89	101	41	38	18	43	–
B2	100	–	10	60	66	29	84	86	8	73	59	100	94	93	59	61	30	64	13700

Source: US20260193376A1 (Novo Nordisk, published 2026)
